Data: patent US6600012

Biological target: HLA.A2 on T2 mutant cells
Assay: T2 cell HLA.A2 upregulation assay, flow cytometry with MA2.1

In the case of FLPSDYFPSV (modifications not checked) […, positive control peptide], the % Change in mean channel intensity is reported as 428%.
